B1: PR001999 (bispecific antibody, IgG1)
chain 1: QAVVTQEPSLTVSPGGTVTLTCRSSTGAVTTSNYANWVQQKPGQAPRGLIGGTNKRAPWTPARFSGSLLGDKAALTLLGAQPEDEAEYFCALWYSNLWVFGGGTKLTVLGGGQSGQGGSGGGGSEVQLVESGGGLVQPGGSLKLSCAASGFTFNTYAMNWVRQASGKGLEWVGRIRSKYNNYATYYADSVKDRFTISRDDSKSTLYLQMNSLKTEDTAVYYCVRHGNFGNSYVSWFAYWGQGTLVTVSSASEPKSSDKTHTCPPCPAPEAAGGPSVFLFPPKPKDTLMISRTPEVTCVVVDVSHEDPEVKFNWYVDGVEVHNAKTKPREEQYNSTYRVVSVLTVLHQDWLNGKEYKCKVSNKALGAPIEKTISKAKGQPREPQVYTLPPCREEMTKNQVSLWCLVKGFYPSDIAVEWESNGQPENNYKTTPPVLDSDGSFFLYSKLTVDKSRWQQGNVFSCSVMHEALHNHYTQKSLSLSPGK
chain 2: EVQLLESGGGLVQPGGSLRLSCAASGFTFSSYAMIWVRQAPGKGLEWVSGISESGGSTYYADSVKGRFTISRDNSKNTLYLQMNSLRAEDTAVYFCVKDLDDILTGYYKDYWGQGTLVTVSSASEPKSSDKTHTCPPCPAPEAAGGPSVFLFPPKPKDTLMISRTPEVTCVVVDVSHEDPEVKFNWYVDGVEVHNAKTKPREEQYNSTYRVVSVLTVLHQDWLNGKEYKCKVSNKALGAPIEKTISKAKGQPREPQVCTLPPSREEMTKNQVSLSCAVKGFYPSDIAVEWESNGQPENNYKTTPPVLDSDGSFFLVSKLTVDKSRWQQGNVFSCSVMHEALHNHYTQKSLSLSPGK
notes: CD3 scFv of PR000510, BCMA VH of PR000940; IgG1 knob/hole, AAG
B2: PR003870 (bispecific antibody, human IgG1, lambda, L234A L235A)
light: QAVVTQEPSLTVSPGGTVTLTCRSSTGAVTTSNYANWVQQKPGQAPRGLIGGTNKRAPWTPARFSGSLLGDKAALTLLGAQPEDEAEYFCALWYSNLWVFGGGTKLTVLGQPKAAPSVTLFPPSSEELQANKATLVCLISDFYPGAVTVAWKADSSPVKAGVETTTPSKQSNNKYAASSYLSLTPEQWKSHRSYSCQVTHEGSTVEKTVAPTECS
heavy: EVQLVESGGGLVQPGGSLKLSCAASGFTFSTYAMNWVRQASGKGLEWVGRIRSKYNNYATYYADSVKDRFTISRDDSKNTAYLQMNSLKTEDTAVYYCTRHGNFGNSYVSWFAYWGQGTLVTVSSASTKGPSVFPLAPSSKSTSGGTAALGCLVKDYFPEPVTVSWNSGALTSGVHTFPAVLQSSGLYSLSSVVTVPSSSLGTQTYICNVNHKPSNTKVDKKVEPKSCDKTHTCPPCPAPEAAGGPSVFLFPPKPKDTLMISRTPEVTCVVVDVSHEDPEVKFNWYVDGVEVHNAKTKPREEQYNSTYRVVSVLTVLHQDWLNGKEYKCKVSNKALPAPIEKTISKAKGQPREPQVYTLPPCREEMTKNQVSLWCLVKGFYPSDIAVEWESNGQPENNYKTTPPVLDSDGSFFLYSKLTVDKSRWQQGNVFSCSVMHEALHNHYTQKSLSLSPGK
chain: EVQLVETGGGLIQPGGSLRLSCAASGFTVSDAYMTWVRQAPGKGLEWVSVIFSGGNTYVSDSVKGRFTISRDNAKNTLYLQMNSLRAEDTALYYCARRNYDQTIGTDVFDIWGQGTMVTVSSASEPKSSDKTHTCPPCPAPEAAGGPSVFLFPPKPKDTLMISRTPEVTCVVVDVSHEDPEVKFNWYVDGVEVHNAKTKPREEQYNSTYRVVSVLTVLHQDWLNGKEYKCKVSNKALPAPIEKTISKAKGQPREPQVCTLPPSREEMTKNQVSLSCAVKGFYPSDIAVEWESNGQPENNYKTTPPVLDSDGSFFLVSKLTVDKSRWQQGNVFSCSVMHEALHNHYTQKSLSLSPGK
notes: BCMAxCD3, Fab-Fc-VH (structure 11); CD3 Fab of PR003886, BCMA VH of PR004565; IgG1 knob/hole, LALA
B3: PR003872 (bispecific antibody, human IgG1, lambda, L234A L235A)
light: QAVVTQEPSLTVSPGGTVTLTCRSSTGAVTTSNYANWVQQKPGQAPRGLIGGTNKRAPWTPARFSGSLLGDKAALTLLGAQPEDEAEYFCALWYSNLWVFGGGTKLTVLGQPKAAPSVTLFPPSSEELQANKATLVCLISDFYPGAVTVAWKADSSPVKAGVETTTPSKQSNNKYAASSYLSLTPEQWKSHRSYSCQVTHEGSTVEKTVAPTECS
heavy: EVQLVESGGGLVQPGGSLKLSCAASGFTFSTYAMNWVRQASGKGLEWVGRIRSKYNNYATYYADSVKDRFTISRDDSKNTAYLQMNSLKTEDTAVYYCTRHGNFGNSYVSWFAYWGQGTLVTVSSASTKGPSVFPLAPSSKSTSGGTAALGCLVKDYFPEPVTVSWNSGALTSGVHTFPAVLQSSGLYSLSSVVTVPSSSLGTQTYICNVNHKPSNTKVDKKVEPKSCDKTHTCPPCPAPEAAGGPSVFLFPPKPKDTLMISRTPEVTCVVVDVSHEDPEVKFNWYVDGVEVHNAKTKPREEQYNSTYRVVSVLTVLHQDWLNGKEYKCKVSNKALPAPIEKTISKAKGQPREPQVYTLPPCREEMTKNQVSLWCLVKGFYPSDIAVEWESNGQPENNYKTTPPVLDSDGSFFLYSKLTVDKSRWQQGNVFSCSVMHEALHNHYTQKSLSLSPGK
chain: EVQLVETGGGLIQPGGSLRLSCAASGFTVSDSYMTWVRQAPGKGLEWVSVIFSGGKTYVADSVKGRFTISRDNAKNTLYLQMNSLRAEDTALYYCARRNYDQTRGTDVFDIWGQGTMVTVSSASEPKSSDKTHTCPPCPAPEAAGGPSVFLFPPKPKDTLMISRTPEVTCVVVDVSHEDPEVKFNWYVDGVEVHNAKTKPREEQYNSTYRVVSVLTVLHQDWLNGKEYKCKVSNKALPAPIEKTISKAKGQPREPQVCTLPPSREEMTKNQVSLSCAVKGFYPSDIAVEWESNGQPENNYKTTPPVLDSDGSFFLVSKLTVDKSRWQQGNVFSCSVMHEALHNHYTQKSLSLSPGK
notes: BCMAxCD3, Fab-Fc-VH (structure 11); CD3 Fab of PR003886, BCMA VH of PR004567; IgG1 knob/hole, LALA
B4: PR003874 (bispecific antibody, human IgG1, lambda, L234A L235A)
light: QAVVTQEPSLTVSPGGTVTLTCRSSTGAVTTSNYANWVQQKPGQAPRGLIGGTNKRAPWTPARFSGSLLGDKAALTLLGAQPEDEAEYFCALWYSNLWVFGGGTKLTVLGQPKAAPSVTLFPPSSEELQANKATLVCLISDFYPGAVTVAWKADSSPVKAGVETTTPSKQSNNKYAASSYLSLTPEQWKSHRSYSCQVTHEGSTVEKTVAPTECS
heavy: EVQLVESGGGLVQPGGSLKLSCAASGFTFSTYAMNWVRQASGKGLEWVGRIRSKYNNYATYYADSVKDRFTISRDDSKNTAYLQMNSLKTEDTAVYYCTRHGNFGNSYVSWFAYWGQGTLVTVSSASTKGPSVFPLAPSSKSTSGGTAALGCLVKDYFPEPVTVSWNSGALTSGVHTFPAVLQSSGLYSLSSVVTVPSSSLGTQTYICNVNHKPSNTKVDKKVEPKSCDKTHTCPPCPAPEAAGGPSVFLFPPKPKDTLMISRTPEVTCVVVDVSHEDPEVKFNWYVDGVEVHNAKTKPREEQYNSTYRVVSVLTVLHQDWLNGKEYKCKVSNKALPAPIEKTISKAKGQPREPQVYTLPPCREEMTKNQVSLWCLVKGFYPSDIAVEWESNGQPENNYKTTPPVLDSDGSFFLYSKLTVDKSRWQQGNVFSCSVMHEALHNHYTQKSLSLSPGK
chain: EVQLVETGGGLIQPGGSLRLSCAASGFTVSDSYMTWVRQAPGKGLEWVSVIFSGGRTYYSDSVKGRFTISRDNAKNTLYLQMNSLRAEDTALYYCARRNYDQTRGTDVFDIWGQGTMVTVSSASEPKSSDKTHTCPPCPAPEAAGGPSVFLFPPKPKDTLMISRTPEVTCVVVDVSHEDPEVKFNWYVDGVEVHNAKTKPREEQYNSTYRVVSVLTVLHQDWLNGKEYKCKVSNKALPAPIEKTISKAKGQPREPQVCTLPPSREEMTKNQVSLSCAVKGFYPSDIAVEWESNGQPENNYKTTPPVLDSDGSFFLVSKLTVDKSRWQQGNVFSCSVMHEALHNHYTQKSLSLSPGK
notes: BCMAxCD3, Fab-Fc-VH (structure 11); CD3 Fab of PR003886, BCMA VH of PR004569; IgG1 knob/hole, LALA
B5: PR001998 (bispecific antibody, IgG1)
chain 1: EVQLLESGGGLVQPGGSLRLSCAASGFTFNTYAMNWVRQAPGKGLEWVSRIRSKYNNYATYYADSVKDRFTISRDDSKSTLYLQMNSLRAEDTAVYYCVRHGNFGNSYVSWFAYWGQGTLVTVSSASTKGPSVFPLAPSSKSTSGGTAALGCLVKDYFPEPVTVSWNSGALTSGVHTFPAVLQSSGLYSLSSVVTVPSSSLGTQTYICNVNHKPSNTKVDKKVEPKSC
chain 2: QAVVTQEPSLTVSPGGTVTLTCRSSTGAVTTSNYANWVQQKPGQAPRGLIGGTNKRAPWTPARFSGSLLGDKAALTLLGAQPEDEAEYFCALWYSNLWVFGGGTKLTVLGQPKAAPSVTLFPPSSEELQANKATLVCLISDFYPGAVTVAWKADSSPVKAGVETTTPSKQSNNKYAASSYLSLTPEQWKSHRSYSCQVTHEGSTVEKTVAPTECSDKTHTCPPCPAPEAAGGPSVFLFPPKPKDTLMISRTPEVTCVVVDVSHEDPEVKFNWYVDGVEVHNAKTKPREEQYNSTYRVVSVLTVLHQDWLNGKEYKCKVSNKALGAPIEKTISKAKGQPREPQVYTLPPCREEMTKNQVSLWCLVKGFYPSDIAVEWESNGQPENNYKTTPPVLDSDGSFFLYSKLTVDKSRWQQGNVFSCSVMHEALHNHYTQKSLSLSPGK
chain 3: EVQLVETGGGLIQPGGSLRLSCAASGFTVSDNYMTWVRQAPGKGLEWVSVIFSGGNTYYADSVKGRFTISRDNAKNTLYLQMNSLRAEDTALYYCARRNYDDTRGTDVFDIWGQGTMVTVSSASEPKSSDKTHTCPPCPAPEAAGGPSVFLFPPKPKDTLMISRTPEVTCVVVDVSHEDPEVKFNWYVDGVEVHNAKTKPREEQYNSTYRVVSVLTVLHQDWLNGKEYKCKVSNKALGAPIEKTISKAKGQPREPQVCTLPPSREEMTKNQVSLSCAVKGFYPSDIAVEWESNGQPENNYKTTPPVLDSDGSFFLVSKLTVDKSRWQQGNVFSCSVMHEALHNHYTQKSLSLSPGK
notes: BCMAxCD3, Fab(cross Fd/LC)-Fc-VH (structure 13); CD3 of PR000511, BCMA VH of PR001046; IgG1 knob/hole, AAG
B6: PR001996 (bispecific antibody, IgG1)
chain 1: EVQLLESGGGLVQPGGSLRLSCAASGFTFNTYAMNWVRQAPGKGLEWVSRIRSKYNNYATYYADSVKDRFTISRDDSKSTLYLQMNSLRAEDTAVYYCVRHGNFGNSYVSWFAYWGQGTLVTVSSASTKGPSVFPLAPSSKSTSGGTAALGCLVKDYFPEPVTVSWNSGALTSGVHTFPAVLQSSGLYSLSSVVTVPSSSLGTQTYICNVNHKPSNTKVDKKVEPKSC
chain 2: QAVVTQEPSLTVSPGGTVTLTCRSSTGAVTTSNYANWVQQKPGQAPRGLIGGTNKRAPWTPARFSGSLLGDKAALTLLGAQPEDEAEYFCALWYSNLWVFGGGTKLTVLGQPKAAPSVTLFPPSSEELQANKATLVCLISDFYPGAVTVAWKADSSPVKAGVETTTPSKQSNNKYAASSYLSLTPEQWKSHRSYSCQVTHEGSTVEKTVAPTECSDKTHTCPPCPAPEAAGGPSVFLFPPKPKDTLMISRTPEVTCVVVDVSHEDPEVKFNWYVDGVEVHNAKTKPREEQYNSTYRVVSVLTVLHQDWLNGKEYKCKVSNKALGAPIEKTISKAKGQPREPQVYTLPPCREEMTKNQVSLWCLVKGFYPSDIAVEWESNGQPENNYKTTPPVLDSDGSFFLYSKLTVDKSRWQQGNVFSCSVMHEALHNHYTQKSLSLSPGK
chain 3: EVQLVETGGGLIQPGGSLRLSCAASGFPVSSNYMSWVRQAPGKGLEWVSVIFSGGRTYYADSVKGRFTISRDNSKNTLYLQMNSLRAEDTAVYYCARRNWIDGRDAFDIWGQGTMVTVSSASEPKSSDKTHTCPPCPAPEAAGGPSVFLFPPKPKDTLMISRTPEVTCVVVDVSHEDPEVKFNWYVDGVEVHNAKTKPREEQYNSTYRVVSVLTVLHQDWLNGKEYKCKVSNKALGAPIEKTISKAKGQPREPQVCTLPPSREEMTKNQVSLSCAVKGFYPSDIAVEWESNGQPENNYKTTPPVLDSDGSFFLVSKLTVDKSRWQQGNVFSCSVMHEALHNHYTQKSLSLSPGK
notes: BCMAxCD3, Fab(cross Fd/LC)-Fc-VH (structure 13); CD3 of PR000511, BCMA VH of PR000943; IgG1 knob/hole, AAG
B7: PR001997 (bispecific antibody, IgG1)
chain 1: EVQLLESGGGLVQPGGSLRLSCAASGFTFNTYAMNWVRQAPGKGLEWVSRIRSKYNNYATYYADSVKDRFTISRDDSKSTLYLQMNSLRAEDTAVYYCVRHGNFGNSYVSWFAYWGQGTLVTVSSASTKGPSVFPLAPSSKSTSGGTAALGCLVKDYFPEPVTVSWNSGALTSGVHTFPAVLQSSGLYSLSSVVTVPSSSLGTQTYICNVNHKPSNTKVDKKVEPKSC
chain 2: QAVVTQEPSLTVSPGGTVTLTCRSSTGAVTTSNYANWVQQKPGQAPRGLIGGTNKRAPWTPARFSGSLLGDKAALTLLGAQPEDEAEYFCALWYSNLWVFGGGTKLTVLGQPKAAPSVTLFPPSSEELQANKATLVCLISDFYPGAVTVAWKADSSPVKAGVETTTPSKQSNNKYAASSYLSLTPEQWKSHRSYSCQVTHEGSTVEKTVAPTECSDKTHTCPPCPAPEAAGGPSVFLFPPKPKDTLMISRTPEVTCVVVDVSHEDPEVKFNWYVDGVEVHNAKTKPREEQYNSTYRVVSVLTVLHQDWLNGKEYKCKVSNKALGAPIEKTISKAKGQPREPQVYTLPPCREEMTKNQVSLWCLVKGFYPSDIAVEWESNGQPENNYKTTPPVLDSDGSFFLYSKLTVDKSRWQQGNVFSCSVMHEALHNHYTQKSLSLSPGK
chain 3: EVQLVETGGGLIQPGGSLRLSCAASGFTVSSNYMTWVRQAPGKGLEWVSVIFSGGSTYYADSVKGRFTISRDNSKNTLYLQMNSLRAEDTAVYYCARRIAVAGHDVFDIWGQGTMVTVSSASEPKSSDKTHTCPPCPAPEAAGGPSVFLFPPKPKDTLMISRTPEVTCVVVDVSHEDPEVKFNWYVDGVEVHNAKTKPREEQYNSTYRVVSVLTVLHQDWLNGKEYKCKVSNKALGAPIEKTISKAKGQPREPQVCTLPPSREEMTKNQVSLSCAVKGFYPSDIAVEWESNGQPENNYKTTPPVLDSDGSFFLVSKLTVDKSRWQQGNVFSCSVMHEALHNHYTQKSLSLSPGK
notes: BCMAxCD3, Fab(cross Fd/LC)-Fc-VH (structure 13); CD3 of PR000511, BCMA VH of PR001035; IgG1 knob/hole, AAG

What follows are binders tested against T1, human BCMA (human, UniProt Q02223 1-184) (assay: FACS on NCI-H929 cells).
T1 construct: whole, on cells; also called hBCMA; TNFRSF17
T1 sequence (looked up): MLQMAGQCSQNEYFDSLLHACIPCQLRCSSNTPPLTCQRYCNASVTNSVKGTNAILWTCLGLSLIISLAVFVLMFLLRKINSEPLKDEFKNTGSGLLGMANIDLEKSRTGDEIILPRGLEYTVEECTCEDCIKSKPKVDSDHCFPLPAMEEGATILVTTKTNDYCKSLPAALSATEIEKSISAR
Experimental: This example is intended to investigate the binding activity of anti-BCMA HCAb antibodies to human and cynomolgus monkey BCMAs. […] Specifically, HEK293T/hBCMA cells and HEK293T/cyno BCMA cells were digested and resuspended in a DMEM complete medium. In addition, NCI-H929 cell suspension was collected. The density of each of the three cells was adjusted to 1×10⁶ cells/mL. […] The cells were incubated at 4° C. for 1 h away from light. Thereafter, the cells in each well were rinsed twice with 100 μL of pre-cooled PBS, and centrifuged at 500 g at 4° C. for 5 min, and then the supernatant was discarded. […] The cells in each well were rinsed twice with 100 μL of pre-cooled PBS, and centrifuged at 500 g at 4° C. for 5 min, and then the supernatant was discarded. Finally, the cells in each well were resuspended in 200 μL of pre-cooled PBS. Fluorescence signal values were read using a BD FACS CANTOII flow cytometer or an ACEA NovoCyte flow cytometer, and the data were processed and analyzed using FlowJo v10 (FlowJo, LLC) software. The data were processed and analyzed by plotting using GraphPad Prism 8 software, and binding curves of the antibodies to target cells, EC₅₀ values and other parameters were obtained through four-parameter nonlinear fitting.

Binder	Maximum MFI	EC50
B1	3480	
B2	10600	3.3 nM
B3	11300	1.1 nM
B4	11000	1.5 nM
B5	3260	
B6	3320	
B7	1460	

Source: patent publication US20230322953A1 (HARBOUR BIOMED SHANGHAI, published 2023)
